Data on 1 molecule can be found in publication PMC9468636, “ZAT10 plays dual roles in cadmium uptake and detoxification in Arabidopsis”.

The target of the data set is MBP-ZAT10 (Arabidopsis thaliana, UniProt Q96289 1-227). The data set can be described thus: EMSA; 2 ug protein in 20 uL; EMSA/gel-shift binding 5x buffer (Beyotime; composition not stated), 20 uL, 25 C, 30 min, 12% native PAGE; protein eluted in 20 mM Tris-HCl, 100 mM NaCl, 10 mM. Particulars: protein: recombinant; tags: N-terminal MBP (pMAL-c4X); blunt. In general terms: In EMSA bound probe runs differently from free probe, usually more slowly.
MBP-ZAT10, sequence (Q96289 whole entry): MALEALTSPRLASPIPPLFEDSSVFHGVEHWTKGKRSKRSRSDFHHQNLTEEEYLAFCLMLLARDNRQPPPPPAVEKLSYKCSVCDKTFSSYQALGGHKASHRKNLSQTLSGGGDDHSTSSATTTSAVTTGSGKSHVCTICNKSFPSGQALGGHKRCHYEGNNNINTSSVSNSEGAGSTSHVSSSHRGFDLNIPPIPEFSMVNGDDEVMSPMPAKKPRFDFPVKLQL

B1: ZAT10 promoter probe (P) (dsDNA)
DNA 1: ATCGCCACCTTCACTCTTCACACTTTCCTACCACTTGTCACGCAACTT
DNA 2: AAGTTGCGTGACAAGTGGTAGGAAAGTGTGAAGAGTGAAGGTGGCGAT
On to B1, for which the binding result is “binds”.
